The IC50 is the point on the concentration scale where inhibition reaches its midpoint. Low values mean greater potency in that assay, high ones weaker potency in that assay. As a reminder, the EC50 is the concentration at which the effect is half-maximal. High values mean lower potency in that assay, low ones higher potency in that assay.

In assay [1] the target is T1, activin type IIB receptor (ActRIIB), coated on ELISA plates, Q13705. Briefly: ELISA; competition: quantified conditioned media compete with biotinylated inhibin A for ActRIIB coated on the plate. For orientation: ELISA stands for enzyme-linked immunosorbent assay.
The target of assay [2] is T1, activin type IIB receptor (ActRIIB), ….
Assay [3] shares this target. Nature of the assay: ELISA; competition: quantified conditioned media compete with biotinylated activin A for ActRIIB coated on the plate.
Assay [4] shares this target. Nature of the assay: ELISA; 50 ng ActRIIB dried in each well (20 mM HEPES pH 7.4); biotinylated inhibin A or activin A in TBST pH 7.4, 1.5 h, room temperature; streptavidin-HRP; standard binding curve.

B1: α^HPWR−/βA mutant inhibin A, P05111 233-366; P08476 311-426 (complex)
chain 1: STPLMSWPWSPSALRLLQRPPEEPAAHANCHRVALNISFQELGWERWIVYPPSFIFHYCHGGCGLHIYSLLPGAQPCCAALPGTMRPLHVRTTSDGGYSFKYETVPNLLTQHCACI
chain 2: GLECDGKVNICCKKQFFVSFKDIGWNDWIIAPSGYHANYCEGECPSHIAGTSGSSLSFHSTVINHYRMRGHSPFANLKSCCVPTKLRPMSMLYYDDGQNIIKKDIQNMIVEECGCS
Take B1: the half-inhibitory concentration (IC50) in assay [1] was 2.96 nM. In assay [2], the IC50 of antagonism of activin A (0.4 nM) in the FSHβ-luciferase assay in LβT2 cells, with transfected betaglycan came to 0.27 nM and the IC50 of antagonism of activin A (0.4 nM) in the FSHβ-luciferase assay in LβT2 cells, without betaglycan was 0.31 nM.

B2: wild type chicken inhibin A (α^Chwt/βA), P43031 217-329; P08476 311-426 (complex)
chain 1: SAVPWSPAALSLLQRPSEDVAAHTNCRRASLNISFEELGWDNWIVHPSSFVFHYCHGNCAEGHGLSHRLGVQLCCAALPGTMRSLRVRTTSDGGYSFKYETVPNILAQDCTCV
chain 2: GLECDGKVNICCKKQFFVSFKDIGWNDWIIAPSGYHANYCEGECPSHIAGTSGSSLSFHSTVINHYRMRGHSPFANLKSCCVPTKLRPMSMLYYDDGQNIIKKDIQNMIVEECGCS
Regarding B2, in assay [1], the IC50 came out at 5.55 nM. In other words, the single-digit nanomolar range.

B3: wild type human inhibin A (α^Hwt/βA), P05111 233-366; P08476 311-426 (complex)
chain 1: STPLMSWPWSPSALRLLQRPPEEPAAHANCHRVALNISFQELGWERWIVYPPSFIFHYCHGGCGLHIPPNLSLPVPGAPPTPAQPYSLLPGAQPCCAALPGTMRPLHVRTTSDGGYSFKYETVPNLLTQHCACI
chain 2: GLECDGKVNICCKKQFFVSFKDIGWNDWIIAPSGYHANYCEGECPSHIAGTSGSSLSFHSTVINHYRMRGHSPFANLKSCCVPTKLRPMSMLYYDDGQNIIKKDIQNMIVEECGCS
For the molecule B3, the IC50 in assay [1] amounted to 9.01 nM.

B4: wild type human activin A (βA/βA dimer), P08476 311-426 (complex)
chain: GLECDGKVNICCKKQFFVSFKDIGWNDWIIAPSGYHANYCEGECPSHIAGTSGSSLSFHSTVINHYRMRGHSPFANLKSCCVPTKLRPMSMLYYDDGQNIIKKDIQNMIVEECGCS
B4 displayed an IC50 in assay [3] of 4.14 nM.

B5: biotinylated human activin A, P08476 311-426 (complex)
chain: GLECDGKVNICCKKQFFVSFKDIGWNDWIIAPSGYHANYCEGECPSHIAGTSGSSLSFHSTVINHYRMRGHSPFANLKSCCVPTKLRPMSMLYYDDGQNIIKKDIQNMIVEECGCS
modifications: here or on the partner: biotin (EZ-link Micro Sulfo-NHS-LC-biotinylation Kit), sites not stated
Regarding B5, in assay [4], the EC50 turned out to be 1.1 nM.

B6: α^Hext−/βA mutant inhibin A, P05111 233-366; P08476 311-426 (complex)
chain 1: STPLMANCHRVALNISFQELGWERWIVYPPSFIFHYCHGGCGLHIPPNLSLPVPGAPPTPAQPYSLLPGAQPCCAALPGTMRPLHVRTTSDGGYSFKYETVPNLLTQHCACI
chain 2: GLECDGKVNICCKKQFFVSFKDIGWNDWIIAPSGYHANYCEGECPSHIAGTSGSSLSFHSTVINHYRMRGHSPFANLKSCCVPTKLRPMSMLYYDDGQNIIKKDIQNMIVEECGCS
modifications: here or on the partner: disulfide-linked heterodimer; alpha-subunit N-glycosylated (CHO-expressed)
B6 came in with a half-maximal inhibitory concentration (IC50) in assay [1] of 128 nM.

B7: biotinylated human inhibin A, P05111 233-366; P08476 311-426 (complex)
chain 1: STPLMSWPWSPSALRLLQRPPEEPAAHANCHRVALNISFQELGWERWIVYPPSFIFHYCHGGCGLHIPPNLSLPVPGAPPTPAQPYSLLPGAQPCCAALPGTMRPLHVRTTSDGGYSFKYETVPNLLTQHCACI
chain 2: GLECDGKVNICCKKQFFVSFKDIGWNDWIIAPSGYHANYCEGECPSHIAGTSGSSLSFHSTVINHYRMRGHSPFANLKSCCVPTKLRPMSMLYYDDGQNIIKKDIQNMIVEECGCS
modifications: here or on the partner: biotin (EZ-link Micro Sulfo-NHS-LC-biotinylation Kit), sites not stated | biotin (EZ-link Micro Sulfo-NHS-LC-biotinylation Kit), sites not stated
As to B7, in assay [4], the concentration giving a half-maximal response (EC50) turned out to be 2.73 nM.

These data come from publication PMC2832003.
